Paper PMC7496822 (Arthritis & Rheumatology (Hoboken, N.j.), 2020)

Legend:
Test in all cases: ELISA
SSA/Ro60 = SSA/Ro60 (Homo sapiens (assumed), UniProt P10155)
actin from bovine muscle = actin from bovine muscle (Bos taurus, UniProt P68138)
[1] = biological target: insulin from bovine pancreas (Bos taurus, UniProt P01317)
SSA/Ro52 = SSA/Ro52 (Homo sapiens (assumed), UniProt P19474)
Sequence of SSA/Ro52 (P19474 whole entry): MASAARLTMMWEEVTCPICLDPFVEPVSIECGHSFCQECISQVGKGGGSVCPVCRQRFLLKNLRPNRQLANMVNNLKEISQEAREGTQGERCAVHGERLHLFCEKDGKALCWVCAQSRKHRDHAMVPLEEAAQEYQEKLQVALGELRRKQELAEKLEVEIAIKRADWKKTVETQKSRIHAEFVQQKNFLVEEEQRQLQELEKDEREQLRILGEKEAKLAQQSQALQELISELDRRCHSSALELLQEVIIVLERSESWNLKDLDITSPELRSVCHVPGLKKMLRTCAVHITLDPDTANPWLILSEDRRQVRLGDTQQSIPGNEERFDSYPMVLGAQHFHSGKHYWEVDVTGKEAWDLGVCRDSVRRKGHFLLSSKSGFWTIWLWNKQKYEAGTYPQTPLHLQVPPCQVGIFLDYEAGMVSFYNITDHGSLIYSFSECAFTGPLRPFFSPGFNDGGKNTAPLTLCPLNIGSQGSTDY

Sequence of SSA/Ro60 (P10155 whole entry): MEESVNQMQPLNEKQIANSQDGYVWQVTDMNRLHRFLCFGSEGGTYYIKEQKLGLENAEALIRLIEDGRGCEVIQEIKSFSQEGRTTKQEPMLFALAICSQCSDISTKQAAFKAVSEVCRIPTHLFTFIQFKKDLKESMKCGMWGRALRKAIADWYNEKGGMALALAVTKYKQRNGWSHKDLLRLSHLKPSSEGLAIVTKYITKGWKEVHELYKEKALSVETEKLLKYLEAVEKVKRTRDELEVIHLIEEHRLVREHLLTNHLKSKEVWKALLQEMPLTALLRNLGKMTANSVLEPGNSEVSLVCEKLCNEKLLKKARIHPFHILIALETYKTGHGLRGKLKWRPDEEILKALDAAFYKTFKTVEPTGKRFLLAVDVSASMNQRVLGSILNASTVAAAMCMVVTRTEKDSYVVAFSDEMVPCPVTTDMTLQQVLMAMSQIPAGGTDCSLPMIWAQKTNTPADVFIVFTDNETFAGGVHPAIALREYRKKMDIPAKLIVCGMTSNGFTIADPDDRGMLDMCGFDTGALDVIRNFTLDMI
Sequence of insulin from bovine pancreas (P01317 whole entry, looked up): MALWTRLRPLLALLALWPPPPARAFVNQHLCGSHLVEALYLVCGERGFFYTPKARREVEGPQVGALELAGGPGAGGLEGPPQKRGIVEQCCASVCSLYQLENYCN

binding result (SSA/Ro60)	binding result (actin from bovine muscle)	binding result [1]	binding result (SSA/Ro52)	Binder
no binding (tested: up to 1 μg/ml IgM)	no binding (tested: up to 1 μg/ml IgM)	no binding (tested: up to 1 μg/ml IgM)	no binding (tested: up to 1 μg/ml IgM)	recombinant IgM of MALT lymphoma salivary gland sample M11 (antibody, V domains shown) VH: QVQLVQSGAEVKKPGSSVKVSCRASGGTFSRYAISWVRQAPGQGLEWMGGIIPLFNTPNYAQKFQGRVTIIADESTSTAYMELSSLRSDDTAVYYCAREGIAAAVNPFDYWGQGTLVTVSS VL: not shown
no binding (tested: up to 1 μg/ml IgM)	no binding (tested: up to 1 μg/ml IgM)	no binding (tested: up to 1 μg/ml IgM)	no binding (tested: up to 1 μg/ml IgM)	recombinant IgM of MALT lymphoma salivary gland sample M22 (antibody, V domains shown) VH: QVQLVQSGAEVKKSGSSVKVSCKASGGTFNNYAINWVRQAPGQGLEWMGGIIPIFGTPNYAQKFQGRVAITADKSTGTAYMELSSLRSEDTAVYYCARGSNDYGDNVPVQPYHYWGQGTLVTVSS VL: EIVLTQSPGTLSLSPGERATLSCRASQSISSTYLAWYQQKPGQAPRLLIYGASSRATGIPDRFSGSGSGTDFTLTISRLEPEDFAMYYCQQFGSSPQTFGQGTKLEIK
no binding (tested: up to 1 μg/ml IgM)	no binding (tested: up to 1 μg/ml IgM)	no binding (tested: up to 1 μg/ml IgM)	no binding (tested: up to 1 μg/ml IgM)	recombinant IgM of MALT lymphoma salivary gland sample M5 (antibody, V domains shown) VH: EVQLVESGGGLVQPGGSLRLSCAASGFTFSSYWMSWVRQAPGKGLEWVANIKEDGGGKYYVDSVKGRFTISRDNAKNSLYLQMNSLRVEDTAVYYCARGDFWSGDYIDAFDIWGQGTLVTVSS VL: EIVMTQSPATLSVSPGERATLSCRASQSVSSNLAWYQQKPGQPPRLLIYGASTRATGIPARFSGGGSGTEFTLTISSLQSEDFALYYCQHYNNWPPWTFGQGTKVEIK
